Molecular target: T1, FOLR1 (R&D Systems, Cat #5646-FR) (human, UniProt P15328 25-233)
T1 construct: Bought soluble protein; also called Folate Receptor 1
Assay: BLI, IgG on anti-human Fc sensor, 50 nM FOLR1

T1 sequence (P15328 25-233 limits assumed): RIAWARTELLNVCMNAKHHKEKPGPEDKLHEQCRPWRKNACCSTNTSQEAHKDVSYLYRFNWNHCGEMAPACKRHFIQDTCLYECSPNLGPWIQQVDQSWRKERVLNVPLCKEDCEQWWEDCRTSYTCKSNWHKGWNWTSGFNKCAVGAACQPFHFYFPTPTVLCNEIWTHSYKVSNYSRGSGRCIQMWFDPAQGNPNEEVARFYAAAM

Binder | binding result
MYT2203 (antibody, V domains shown, IgG) VH: EVQLVESGGGVVQPGRSLRLSCSASGFTFSGYGLSWVRQAPGKGLEWVAMISSGGSYHYYADSVKGRFAISRDNAKNTLFLQMDSLRPEDTGVYFCARHGDDPAWFAYWGQGTPVTVSS VL: DIQLTQSPSSLSASVGDRVTITCSVSSSISSNNLHWYQQKPGKAPKPWIYGTSNLASGVPSRFSGSGSGTDYTFTISSLQPEDIATYYCQQWSSYPYMYTFGQGTKVEIK | binds
MYT4520 (antibody, V domains shown, IgG) VH: EVQLVESGGGVVQPGRSLRLSCSASGFTFSGYGLSWVRQAPGKGLEWVAMISSGGSYTYYADSVKGRFAISRDNAKNTLFLQMDSLRPEDTGVYFCARHGDDPAWFAYWGQGTPVTVSS VL: DIQLTQSPSSLSASVGDRVTITCSVSHSISSNNLHWYQQKPGKAPKPWIYGTSNLASGVPSRFSGSGSGTDYTFTISSLQPEDIATYYCQQWSSYPYMYTFGQGTKVEIK | binds
MYT2223 (antibody, V domains shown, IgG) VH: EVQLVESGGGVVQPGRSLRLSCSASGFTFSGYGLSWVRQAPGKGLEWVAMISSGGSYTYYADSVKGRFAISRDNAKNTLFLQMDSLRPEDTGVYFCARHGDDPAWFAHWGQGTPVTVSS VL: DIQLTQSPSSLSASVGDRVTITCSVSSSISSNNLHWYQQKPGKAPKPWIYGTSNLASGVPSRFSGSGSGTDYTFTISSLQPEDIATYYCQQWSSYPYMYTFGQGTKVEIK | binds
MYT2204 (antibody, V domains shown, IgG) VH: EVQLVESGGGVVQPGRSLRLSCSASGFTFSGYGLSWVRQAPGKGLEWVAMISSGGSYTHYADSVKGRFAISRDNAKNTLFLQMDSLRPEDTGVYFCARHGDDPAWFAYWGQGTPVTVSS VL: DIQLTQSPSSLSASVGDRVTITCSVSSSISSNNLHWYQQKPGKAPKPWIYGTSNLASGVPSRFSGSGSGTDYTFTISSLQPEDIATYYCQQWSSYPYMYTFGQGTKVEIK | binds
MYT2207 (antibody, V domains shown, IgG) VH: EVQLVESGGGVVQPGRSLRLSCSASGFTFSGYGLSWVRQAPGKGLEWVAMISSGGSYTYYAHSVKGRFAISRDNAKNTLFLQMDSLRPEDTGVYFCARHGDDPAWFAYWGQGTPVTVSS VL: DIQLTQSPSSLSASVGDRVTITCSVSSSISSNNLHWYQQKPGKAPKPWIYGTSNLASGVPSRFSGSGSGTDYTFTISSLQPEDIATYYCQQWSSYPYMYTFGQGTKVEIK | binds
MYT4521 (antibody, V domains shown, IgG) VH: EVQLVESGGGVVQPGRSLRLSCSASGFTFSGYGLSWVRQAPGKGLEWVAMISSGGSYTYYADSVKGRFAISRDNAKNTLFLQMDSLRPEDTGVYFCARHGDDPAWFAYWGQGTPVTVSS VL: DIQLTQSPSSLSASVGDRVTITCSVSSHISSNNLHWYQQKPGKAPKPWIYGTSNLASGVPSRFSGSGSGTDYTFTISSLQPEDIATYYCQQWSSYPYMYTFGQGTKVEIK | binds
MYT4523 (antibody, V domains shown, IgG) VH: EVQLVESGGGVVQPGRSLRLSCSASGFTFSGYGLSWVRQAPGKGLEWVAMISSGGSYTYYADSVKGRFAISRDNAKNTLFLQMDSLRPEDTGVYFCARHGDDPAWFAYWGQGTPVTVSS VL: DIQLTQSPSSLSASVGDRVTITCSVSSSIHSNNLHWYQQKPGKAPKPWIYGTSNLASGVPSRFSGSGSGTDYTFTISSLQPEDIATYYCQQWSSYPYMYTFGQGTKVEIK | binds
MYT2208 (antibody, V domains shown, IgG) VH: EVQLVESGGGVVQPGRSLRLSCSASGFTFSGYGLSWVRQAPGKGLEWVAMISSGGSYTYYADHVKGRFAISRDNAKNTLFLQMDSLRPEDTGVYFCARHGDDPAWFAYWGQGTPVTVSS VL: DIQLTQSPSSLSASVGDRVTITCSVSSSISSNNLHWYQQKPGKAPKPWIYGTSNLASGVPSRFSGSGSGTDYTFTISSLQPEDIATYYCQQWSSYPYMYTFGQGTKVEIK | binds
MYT2210 (antibody, V domains shown, IgG) VH: EVQLVESGGGVVQPGRSLRLSCSASGFTFSGYGLSWVRQAPGKGLEWVAMISSGGSYTYYADSVHGRFAISRDNAKNTLFLQMDSLRPEDTGVYFCARHGDDPAWFAYWGQGTPVTVSS VL: DIQLTQSPSSLSASVGDRVTITCSVSSSISSNNLHWYQQKPGKAPKPWIYGTSNLASGVPSRFSGSGSGTDYTFTISSLQPEDIATYYCQQWSSYPYMYTFGQGTKVEIK | binds
MYT2205 (antibody, V domains shown, IgG) VH: EVQLVESGGGVVQPGRSLRLSCSASGFTFSGYGLSWVRQAPGKGLEWVAMISSGGSYTYHADSVKGRFAISRDNAKNTLFLQMDSLRPEDTGVYFCARHGDDPAWFAYWGQGTPVTVSS VL: DIQLTQSPSSLSASVGDRVTITCSVSSSISSNNLHWYQQKPGKAPKPWIYGTSNLASGVPSRFSGSGSGTDYTFTISSLQPEDIATYYCQQWSSYPYMYTFGQGTKVEIK | binds
MYT2214 (antibody, V domains shown, IgG) VH: EVQLVESGGGVVQPGRSLRLSCSASGFTFSGYGLSWVRQAPGKGLEWVAMISSGGSYTYYADSVKGRFAISRDNAKNTLFLQMDSLRPEDTGVYFCARAGDDPAWFAYWGQGTPVTVSS VL: DIQLTQSPSSLSASVGDRVTITCSVSSSISSNNLHWYQQKPGKAPKPWIYGTSNLASGVPSRFSGSGSGTDYTFTISSLQPEDIATYYCQQWSSYPYMYTFGQGTKVEIK | binds

Second part, the binder after the results:

binding result | Binder
binds | MYT2216 (antibody, V domains shown, IgG) VH: EVQLVESGGGVVQPGRSLRLSCSASGFTFSGYGLSWVRQAPGKGLEWVAMISSGGSYTYYADSVKGRFAISRDNAKNTLFLQMDSLRPEDTGVYFCARHGHDPAWFAYWGQGTPVTVSS VL: DIQLTQSPSSLSASVGDRVTITCSVSSSISSNNLHWYQQKPGKAPKPWIYGTSNLASGVPSRFSGSGSGTDYTFTISSLQPEDIATYYCQQWSSYPYMYTFGQGTKVEIK
binds | MYT4524 (antibody, V domains shown, IgG) VH: EVQLVESGGGVVQPGRSLRLSCSASGFTFSGYGLSWVRQAPGKGLEWVAMISSGGSYTYYADSVKGRFAISRDNAKNTLFLQMDSLRPEDTGVYFCARHGDDPAWFAYWGQGTPVTVSS VL: DIQLTQSPSSLSASVGDRVTITCSVSSSISHNNLHWYQQKPGKAPKPWIYGTSNLASGVPSRFSGSGSGTDYTFTISSLQPEDIATYYCQQWSSYPYMYTFGQGTKVEIK
binds | MYT2206 (antibody, V domains shown, IgG) VH: EVQLVESGGGVVQPGRSLRLSCSASGFTFSGYGLSWVRQAPGKGLEWVAMISSGGSYTYYHDSVKGRFAISRDNAKNTLFLQMDSLRPEDTGVYFCARHGDDPAWFAYWGQGTPVTVSS VL: DIQLTQSPSSLSASVGDRVTITCSVSSSISSNNLHWYQQKPGKAPKPWIYGTSNLASGVPSRFSGSGSGTDYTFTISSLQPEDIATYYCQQWSSYPYMYTFGQGTKVEIK
binds | MYT2211 (antibody, V domains shown, IgG) VH: EVQLVESGGGVVQPGRSLRLSCSASGFTFSGYGLSWVRQAPGKGLEWVAMISSGGSYTYYADSVKHRFAISRDNAKNTLFLQMDSLRPEDTGVYFCARHGDDPAWFAYWGQGTPVTVSS VL: DIQLTQSPSSLSASVGDRVTITCSVSSSISSNNLHWYQQKPGKAPKPWIYGTSNLASGVPSRFSGSGSGTDYTFTISSLQPEDIATYYCQQWSSYPYMYTFGQGTKVEIK
binds | MYT2222 (antibody, V domains shown, IgG) VH: EVQLVESGGGVVQPGRSLRLSCSASGFTFSGYGLSWVRQAPGKGLEWVAMISSGGSYTYYADSVKGRFAISRDNAKNTLFLQMDSLRPEDTGVYFCARHGDDPAWFHYWGQGTPVTVSS VL: DIQLTQSPSSLSASVGDRVTITCSVSSSISSNNLHWYQQKPGKAPKPWIYGTSNLASGVPSRFSGSGSGTDYTFTISSLQPEDIATYYCQQWSSYPYMYTFGQGTKVEIK
binds | MYT4526 (antibody, V domains shown, IgG) VH: EVQLVESGGGVVQPGRSLRLSCSASGFTFSGYGLSWVRQAPGKGLEWVAMISSGGSYTYYADSVKGRFAISRDNAKNTLFLQMDSLRPEDTGVYFCARHGDDPAWFAYWGQGTPVTVSS VL: DIQLTQSPSSLSASVGDRVTITCSVSSSISSNHLHWYQQKPGKAPKPWIYGTSNLASGVPSRFSGSGSGTDYTFTISSLQPEDIATYYCQQWSSYPYMYTFGQGTKVEIK
binds | MYT2220 (antibody, V domains shown, IgG) VH: EVQLVESGGGVVQPGRSLRLSCSASGFTFSGYGLSWVRQAPGKGLEWVAMISSGGSYTYYADSVKGRFAISRDNAKNTLFLQMDSLRPEDTGVYFCARHGDDPAHFAYWGQGTPVTVSS VL: DIQLTQSPSSLSASVGDRVTITCSVSSSISSNNLHWYQQKPGKAPKPWIYGTSNLASGVPSRFSGSGSGTDYTFTISSLQPEDIATYYCQQWSSYPYMYTFGQGTKVEIK
binds | MYT2218 (antibody, V domains shown, IgG) VH: EVQLVESGGGVVQPGRSLRLSCSASGFTFSGYGLSWVRQAPGKGLEWVAMISSGGSYTYYADSVKGRFAISRDNAKNTLFLQMDSLRPEDTGVYFCARHGDDHAWFAYWGQGTPVTVSS VL: DIQLTQSPSSLSASVGDRVTITCSVSSSISSNNLHWYQQKPGKAPKPWIYGTSNLASGVPSRFSGSGSGTDYTFTISSLQPEDIATYYCQQWSSYPYMYTFGQGTKVEIK
binds | MYT2209 (antibody, V domains shown, IgG) VH: EVQLVESGGGVVQPGRSLRLSCSASGFTFSGYGLSWVRQAPGKGLEWVAMISSGGSYTYYADSHKGRFAISRDNAKNTLFLQMDSLRPEDTGVYFCARHGDDPAWFAYWGQGTPVTVSS VL: DIQLTQSPSSLSASVGDRVTITCSVSSSISSNNLHWYQQKPGKAPKPWIYGTSNLASGVPSRFSGSGSGTDYTFTISSLQPEDIATYYCQQWSSYPYMYTFGQGTKVEIK
binds | MYT4522 (antibody, V domains shown, IgG) VH: EVQLVESGGGVVQPGRSLRLSCSASGFTFSGYGLSWVRQAPGKGLEWVAMISSGGSYTYYADSVKGRFAISRDNAKNTLFLQMDSLRPEDTGVYFCARHGDDPAWFAYWGQGTPVTVSS VL: DIQLTQSPSSLSASVGDRVTITCSVSSSHSSNNLHWYQQKPGKAPKPWIYGTSNLASGVPSRFSGSGSGTDYTFTISSLQPEDIATYYCQQWSSYPYMYTFGQGTKVEIK

From patent publication US20220298260A1 (MYTHIC THERAPEUTICS, published 2022)
